From the supplement of paper PMC10065799, “High-throughput profiling of sequence recognition by tyrosine kinases and SH2 domains using bacterial peptide display” (eLife, 2023)

Key:
c-Src SH2 = experiment: SH2 binding enrichment of the phosphorylated peptide, bacterial display (enrichment ratio); higher = better substrate or ligand; peptides without Tyr show the background
SHP2-C SH2 = experiment: as above
Grb2 SH2 = Grb2 SH2 (UniProt P62993); experiment: as above
FGFR1 = FGFR1 (UniProt P11362); experiment: phosphorylation enrichment, bacterial display (enrichment ratio); higher = better substrate or ligand; peptides without Tyr show the background
Jak2 = Jak2 (UniProt O60674); experiment: as above
EPHB2 = EPHB2 (UniProt P29323); experiment: as above
c-Abl (mouse) = experiment: as above
MERTK = MERTK (UniProt Q12866); experiment: as above
FGFR3 = FGFR3 (UniProt P22607); experiment: as above
AncSZ = experiment: as above
Hck = Hck (UniProt P08631); experiment: as above
Fes = Fes (UniProt P07332); experiment: as above
EPHB1 = EPHB1 (UniProt P54762); experiment: as above
Fyn = Fyn (UniProt P06241); experiment: as above
c-Src = experiment: as above
Fer (mouse) = experiment: as above
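Wherever SH2 binding enrichment of the phosphorylated peptide, bacterial display is given: peptide library displayed on the E. coli surface as eCPX fusions, selected cells deep-sequenced, score is each peptide's frequency after selection divided by its frequency in the input.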
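Wherever phosphorylation enrichment, bacterial display is given: 11-residue human phosphosite peptides and single-mutation variants displayed on the E. coli surface, counted by deep sequencing, each peptide's frequency after selection divided by its frequency in the unselected input library; frequency after pTyr selection over input frequency; kinase dosed for 20-30% of maximal phosphorylation in three min.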

Sequence of Fes (P07332 whole entry, looked up): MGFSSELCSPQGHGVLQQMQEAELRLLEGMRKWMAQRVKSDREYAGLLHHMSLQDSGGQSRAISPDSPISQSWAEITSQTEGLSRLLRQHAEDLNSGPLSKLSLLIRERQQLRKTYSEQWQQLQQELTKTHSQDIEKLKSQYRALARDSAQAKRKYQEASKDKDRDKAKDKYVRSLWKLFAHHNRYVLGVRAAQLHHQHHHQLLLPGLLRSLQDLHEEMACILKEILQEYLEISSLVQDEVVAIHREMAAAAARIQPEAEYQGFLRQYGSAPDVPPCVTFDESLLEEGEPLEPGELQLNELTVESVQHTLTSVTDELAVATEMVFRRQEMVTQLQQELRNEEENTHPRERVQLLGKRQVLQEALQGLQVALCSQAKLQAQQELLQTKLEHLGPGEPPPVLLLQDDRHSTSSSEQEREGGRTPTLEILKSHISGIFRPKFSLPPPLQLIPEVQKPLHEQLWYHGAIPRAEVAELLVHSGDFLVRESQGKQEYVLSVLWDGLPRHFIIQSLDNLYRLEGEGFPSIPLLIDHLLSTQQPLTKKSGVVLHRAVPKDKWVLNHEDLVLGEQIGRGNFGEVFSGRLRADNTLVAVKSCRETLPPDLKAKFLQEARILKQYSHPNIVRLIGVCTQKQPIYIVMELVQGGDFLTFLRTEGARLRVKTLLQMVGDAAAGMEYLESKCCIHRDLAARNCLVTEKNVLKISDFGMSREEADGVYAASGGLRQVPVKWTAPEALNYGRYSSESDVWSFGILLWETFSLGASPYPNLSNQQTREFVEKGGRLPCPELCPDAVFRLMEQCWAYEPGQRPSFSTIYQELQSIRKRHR
Sequence of EPHB1 (P54762 whole entry, looked up): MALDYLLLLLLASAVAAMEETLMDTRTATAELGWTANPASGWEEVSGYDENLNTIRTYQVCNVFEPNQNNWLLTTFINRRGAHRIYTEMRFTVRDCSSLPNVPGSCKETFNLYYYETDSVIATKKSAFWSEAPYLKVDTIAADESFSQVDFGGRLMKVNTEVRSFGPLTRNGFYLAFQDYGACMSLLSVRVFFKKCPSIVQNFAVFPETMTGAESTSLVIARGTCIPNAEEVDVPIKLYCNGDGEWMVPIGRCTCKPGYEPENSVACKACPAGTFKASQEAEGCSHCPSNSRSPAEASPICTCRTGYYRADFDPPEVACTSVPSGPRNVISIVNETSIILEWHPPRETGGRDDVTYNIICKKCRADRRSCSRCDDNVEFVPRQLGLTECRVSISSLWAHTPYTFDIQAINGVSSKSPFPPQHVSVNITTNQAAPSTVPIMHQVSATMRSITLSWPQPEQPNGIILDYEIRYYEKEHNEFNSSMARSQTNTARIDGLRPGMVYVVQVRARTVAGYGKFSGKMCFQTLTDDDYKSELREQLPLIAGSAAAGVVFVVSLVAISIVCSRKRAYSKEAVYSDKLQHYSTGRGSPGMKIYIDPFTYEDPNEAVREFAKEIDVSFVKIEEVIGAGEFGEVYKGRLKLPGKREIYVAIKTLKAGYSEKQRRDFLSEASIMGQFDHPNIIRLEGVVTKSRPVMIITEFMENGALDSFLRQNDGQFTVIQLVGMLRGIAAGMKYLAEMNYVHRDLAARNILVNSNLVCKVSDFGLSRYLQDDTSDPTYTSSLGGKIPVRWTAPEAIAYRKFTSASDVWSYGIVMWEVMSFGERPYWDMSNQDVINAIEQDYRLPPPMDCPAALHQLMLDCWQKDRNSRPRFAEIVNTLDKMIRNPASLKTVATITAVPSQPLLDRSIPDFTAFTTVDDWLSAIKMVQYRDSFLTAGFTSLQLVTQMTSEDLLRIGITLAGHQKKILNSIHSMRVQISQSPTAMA
Sequence of Hck (P08631 whole entry, looked up): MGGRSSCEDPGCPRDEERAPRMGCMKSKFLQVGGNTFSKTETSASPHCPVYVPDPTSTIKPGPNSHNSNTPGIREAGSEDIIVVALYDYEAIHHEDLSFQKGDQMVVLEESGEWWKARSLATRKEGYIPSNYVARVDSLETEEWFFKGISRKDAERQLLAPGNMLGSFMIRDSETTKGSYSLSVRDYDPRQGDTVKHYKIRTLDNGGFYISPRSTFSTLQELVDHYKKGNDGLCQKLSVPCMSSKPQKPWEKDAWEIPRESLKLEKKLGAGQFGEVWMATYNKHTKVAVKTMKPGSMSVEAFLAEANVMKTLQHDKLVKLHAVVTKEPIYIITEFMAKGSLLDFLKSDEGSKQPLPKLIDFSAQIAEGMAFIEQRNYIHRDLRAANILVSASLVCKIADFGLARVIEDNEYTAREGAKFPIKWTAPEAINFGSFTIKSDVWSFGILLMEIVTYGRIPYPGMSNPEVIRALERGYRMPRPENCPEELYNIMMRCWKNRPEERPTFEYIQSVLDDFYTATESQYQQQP
Sequence of FGFR1 (P11362 whole entry, looked up): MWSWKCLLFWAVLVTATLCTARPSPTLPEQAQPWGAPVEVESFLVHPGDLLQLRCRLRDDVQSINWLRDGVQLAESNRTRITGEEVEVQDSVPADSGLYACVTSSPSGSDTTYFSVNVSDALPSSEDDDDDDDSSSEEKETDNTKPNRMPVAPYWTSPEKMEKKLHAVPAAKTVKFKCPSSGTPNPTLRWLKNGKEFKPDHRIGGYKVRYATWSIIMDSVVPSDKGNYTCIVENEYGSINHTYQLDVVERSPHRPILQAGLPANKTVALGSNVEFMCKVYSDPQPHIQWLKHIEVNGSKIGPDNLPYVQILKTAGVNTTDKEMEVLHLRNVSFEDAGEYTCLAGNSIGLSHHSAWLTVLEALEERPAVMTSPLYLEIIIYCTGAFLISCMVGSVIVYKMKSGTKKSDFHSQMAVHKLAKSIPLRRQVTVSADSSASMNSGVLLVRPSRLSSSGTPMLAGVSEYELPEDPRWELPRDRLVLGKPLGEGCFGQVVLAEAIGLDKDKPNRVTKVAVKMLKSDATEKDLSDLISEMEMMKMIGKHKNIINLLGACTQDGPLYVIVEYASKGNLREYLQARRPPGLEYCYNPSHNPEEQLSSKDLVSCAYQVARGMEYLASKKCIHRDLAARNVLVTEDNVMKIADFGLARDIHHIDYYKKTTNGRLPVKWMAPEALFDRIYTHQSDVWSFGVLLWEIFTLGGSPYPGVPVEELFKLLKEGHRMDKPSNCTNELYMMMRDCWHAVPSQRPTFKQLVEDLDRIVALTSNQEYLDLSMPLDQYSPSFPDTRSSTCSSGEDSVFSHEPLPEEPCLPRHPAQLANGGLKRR
Sequence of Fyn (P06241 whole entry, looked up): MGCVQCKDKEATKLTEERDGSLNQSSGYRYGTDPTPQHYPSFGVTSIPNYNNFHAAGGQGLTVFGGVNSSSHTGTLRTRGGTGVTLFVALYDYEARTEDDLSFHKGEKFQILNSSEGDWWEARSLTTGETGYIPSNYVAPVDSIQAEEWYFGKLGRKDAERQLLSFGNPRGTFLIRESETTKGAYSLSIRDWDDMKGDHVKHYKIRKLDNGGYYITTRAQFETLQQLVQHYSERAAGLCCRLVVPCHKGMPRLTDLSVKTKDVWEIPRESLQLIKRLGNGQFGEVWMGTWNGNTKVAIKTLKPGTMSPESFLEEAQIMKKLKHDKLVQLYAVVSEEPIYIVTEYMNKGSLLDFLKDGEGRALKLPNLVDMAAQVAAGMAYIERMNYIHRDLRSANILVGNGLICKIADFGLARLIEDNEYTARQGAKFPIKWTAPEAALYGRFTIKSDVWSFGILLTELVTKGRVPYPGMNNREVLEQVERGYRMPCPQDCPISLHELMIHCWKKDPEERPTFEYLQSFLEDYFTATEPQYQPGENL
Sequence of Grb2 SH2 (P62993 whole entry, looked up): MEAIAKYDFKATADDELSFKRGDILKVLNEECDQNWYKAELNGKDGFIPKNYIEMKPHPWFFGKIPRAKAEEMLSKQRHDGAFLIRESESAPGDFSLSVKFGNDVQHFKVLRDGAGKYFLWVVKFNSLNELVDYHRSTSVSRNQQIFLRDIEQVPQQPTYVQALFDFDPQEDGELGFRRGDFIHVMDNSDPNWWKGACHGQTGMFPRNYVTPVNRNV
Sequence of MERTK (Q12866 whole entry, looked up): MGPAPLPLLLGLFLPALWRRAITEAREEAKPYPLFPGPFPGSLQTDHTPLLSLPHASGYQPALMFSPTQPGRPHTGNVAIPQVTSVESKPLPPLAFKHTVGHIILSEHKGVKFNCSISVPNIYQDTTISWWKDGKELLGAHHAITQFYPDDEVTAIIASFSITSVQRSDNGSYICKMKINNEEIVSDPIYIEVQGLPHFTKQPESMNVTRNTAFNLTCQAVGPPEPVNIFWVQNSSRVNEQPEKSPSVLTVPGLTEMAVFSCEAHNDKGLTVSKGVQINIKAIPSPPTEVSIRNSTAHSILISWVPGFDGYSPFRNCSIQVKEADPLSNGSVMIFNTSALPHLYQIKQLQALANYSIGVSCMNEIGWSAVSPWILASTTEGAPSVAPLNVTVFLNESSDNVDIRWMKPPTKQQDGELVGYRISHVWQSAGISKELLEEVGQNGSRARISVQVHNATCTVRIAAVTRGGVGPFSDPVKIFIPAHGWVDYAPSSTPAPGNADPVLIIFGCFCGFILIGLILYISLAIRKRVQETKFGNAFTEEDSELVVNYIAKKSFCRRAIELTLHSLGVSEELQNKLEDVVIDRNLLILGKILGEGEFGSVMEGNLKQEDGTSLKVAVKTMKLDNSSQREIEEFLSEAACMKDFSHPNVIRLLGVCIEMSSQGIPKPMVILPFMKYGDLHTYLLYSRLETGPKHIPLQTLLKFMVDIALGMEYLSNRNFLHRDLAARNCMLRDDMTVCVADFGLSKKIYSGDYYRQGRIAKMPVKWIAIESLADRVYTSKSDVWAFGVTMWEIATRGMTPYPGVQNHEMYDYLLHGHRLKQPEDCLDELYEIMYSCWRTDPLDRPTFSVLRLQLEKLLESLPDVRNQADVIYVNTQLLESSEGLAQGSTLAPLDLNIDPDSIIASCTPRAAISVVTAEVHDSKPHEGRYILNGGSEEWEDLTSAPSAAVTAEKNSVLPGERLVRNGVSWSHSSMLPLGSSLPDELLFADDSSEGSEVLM

Sequence	SH2 binding enrichment (c-Src SH2)	SH2 binding enrichment (SHP2-C SH2)	SH2 binding enrichment (Grb2 SH2)	phosphorylation enrichment (FGFR1)	phosphorylation enrichment (Jak2)	phosphorylation enrichment (EPHB2)	phosphorylation enrichment (c-Abl (mouse))	phosphorylation enrichment (MERTK)	phosphorylation enrichment (FGFR3)	phosphorylation enrichment (AncSZ)	phosphorylation enrichment (Hck)	phosphorylation enrichment (Fes)	phosphorylation enrichment (EPHB1)	phosphorylation enrichment (Fyn)	phosphorylation enrichment (c-Src)	phosphorylation enrichment (Fer (mouse))
AFAEVYEGQVS [ALK_Y1131_G1128A]	0.506	0.769	0.888	0.414	1.09	0.504	0.868	0.484	0.695	1.07	0.796	0.974	0.559	0.563	1.21	0.518
AFPVSYSSSGA [RET_Y687]	0.506	0.65	0.767	0.407	0.52	0.314	0.53	0.454	0.406	0.511	0.303	0.541	0.455	0.344	0.477	0.392
AFSLKYEQQTQ [SYTL4_Y366]	0.587	0.67	1.09	0.53	0.982	0.624	0.564	0.491	0.841	1.03	0.535	1.21	0.694	0.437	0.364	0.719
AGIENYTSRFG [NKD2_Y256]	0.485	0.625	0.767	0.434	0.465	0.386	0.585	0.418	0.529	0.569	0.329	0.719	0.817	0.421	0.426	0.383
AGLVQYFMEHH [PTPN11_Y80_E76G_YF]	0.599	0.845	0.844	0.538	0.962	0.592	0.741	0.456	0.782	0.955	0.565	1.12	0.655	0.513	0.452	0.474
AGQEGYDRLRP [RAC1_Y64_D63G]	0.918	0.501	0.72	0.562	0.484	0.596	0.654	0.36	0.642	0.547	0.527	0.712	0.43	0.34	0.378	0.347
AGTILSHAHLD [ASS1_Y291_Y291S]	0.374	0.55	0.696	0.364	0.707	0.459	0.622	0.289	0.546	0.75	0.412	0.847	0.788	0.367	0.384	0.374
AHAGEHGAEAL [HBA1_Y25_Y25H]	0.484	0.763	0.782	0.476	0.491	0.439	0.454	0.382	0.451	0.521	0.479	0.703	0.378	0.354	0.461	0.419
AHAGEYGAGAL [HBA1_Y25_E28G]	0.403	0.589	0.776	0.365	0.608	0.434	0.616	0.395	0.485	0.575	0.49	0.539	0.376	0.405	0.489	0.384
AHAGEYGVEAL [HBA1_Y25_A27V]	0.493	0.79	0.872	0.499	0.793	0.631	0.595	0.422	0.678	0.83	0.547	0.9	0.492	0.525	0.402	0.448
AHAGKYGAEAL [HBA1_Y25_E24K]	0.452	0.608	0.818	0.4	0.544	0.338	0.451	0.347	0.42	0.677	0.368	0.796	0.453	0.423	0.387	0.342
AHARMYGVLPW [PLP1_Y207_D203H]	0.49	1.19	1.05	0.503	0.478	0.462	0.58	0.507	0.421	0.496	3.4	0.617	0.519	2.35	2.35	0.402
AHPGEYGAEAL [HBA1_Y25_A22P]	0.508	0.707	0.728	0.453	0.563	0.51	0.634	0.443	0.559	0.801	0.486	0.768	0.516	0.488	0.408	0.425
AHPIIYTIIEA [PYKtide_no-pT_2014]	1.5	1.66	1.21	1.57	0.838	1.3	1.85	7.03	1.44	0.892	2.74	1.21	5.42	3.29	3.47	3.1
NHFKIYNLFAE [PTEN_Y68_C71Y_YF]	–	–	–	0.933	0.612	1.14	0.573	0.329	1.36	1.14	1.53	1.33	0.931	2.73	1.64	0.946
